Data as given in patent US20220241369A1, “COMPOSITIONS AND METHODS OF MODULATING INFLAMMATION” (La Jolla Institute for Allergy and Immunology, priority 2018, published 2022).

What was measured:
[1] = target: IgE on mucosal (IgE+ mMCP-1+, c-Kit+) mast cells of the small intestine of OVA-sensitized/OVA-challenged mice (mouse); test: confocal microscopy of jejunum, anti-His tag staining (data not shown)
[2] = test system: OVA-induced food allergy (allergic diarrhea); test: IgE-mediated experimental food allergy, i.g. pretreatment with HRF inhibitor before each OVA challenge; assay type: in vivo, mouse
Procedure: FIGS. 1A-1I show GST-N19 inhibits the development of diarrhea and intestinal mastocytosis in murine food allergy. Mice were i.p. sensitized with OVA ([…]) plus alum on days 0 and 14. From day 28, mice were i.g. challenged with OVA (50 mg) three times a week. Sensitized mice were either non-pretreated (−) or i.g. pretreated with 100 μg of GST or GST-N19 (N19). (FIG. 1A) Procedure scheme. (FIG. 1B) The development of diarrhea was monitored for 90 min after each OVA challenge. (n=5 for non-sensitized group, n=3 for inhibitor non-pretreated group, n=4 for GST group, n=6 for N19 group, data are representative of at least 3 independent experiments) Log-rank test: p=0.028 (GST vs. GST-N19), p=0.036 (control vs. GST-N19). […] (FIG. 1C-FIG. 1E) Total IgE, IgG1, HRF, and HRF-reactive IgE and IgG in sera were measured by ELISA. (FIG. 1F) Serum mMCP-1 was also measured by ELISA. (FIG. 1G) Sections of jejunum were stained with chloroacetate esterase to identify mast cells. Sections indicated by rectangles are enlarged in lower rows. Bar=100 μm in large pictures and 50 μm in insets. (FIG. 1H) Flow cytometry was performed to enumerate MMC9s (Lin^−c-Kit^+ST2^+IL-17RB^−Integrin β7^lo) in jejunum. (n=14 for non-sensitized group, n=15 for inhibitor non-pretreated group, n=9 for GST group, n=9 for GST-N19 group, pooled data of 3 independent experiments) (FIG. 1I) Cytokine mRNAs in jejunum were quantified by qRT-PCR. *, **: p<0.05, p<0.01 by ANOVA with Tukey's multiple comparison.
Mice were i.p. sensitized with OVA (50 μg/mouse) plus alum on days 0 and 14. From day 28, mice were i.g. challenged with OVA (25 or 50 mg) or PBS (control) three times a week. Before each challenge, mice were starved for 3 h, then i.g. pretreated with GST, GST-N19 (100 μg/mouse), synthetic N19 peptide, or HRF-2CA. The development of diarrhea was monitored for 90 min after OVA challenge. Diarrhea severity (30) was based on states of stool: solid (score 0), funicular (score 1), slurry (score 2), and watery (score 3).
For histologic analysis, jejunal tissue was fixed in 10% formalin. Mast cells in jejunal sections were detected by chloroacetate esterase staining. IgE, IgG, IgG1, IgG2a, mMCP-1, HRF, HRF-reactive IgE, and HRF-reactive IgG 24 h after the last OVA challenge were measured by ELISA (see Supplemental Information). Cytokine mRNAs in jejunum were quantified by qRT-PCR.
Twenty-four hours after the last OVA challenge, mice were sacrificed and small intestines (0.5-15 cm from stomach) were collected. The intestinal tissues were opened longitudinally and washed with HBSS. The washed tissues were incubated with 5 mM EDTA-HBSS for 30 min at 4° C., transferred to 30 ml HBSS in 50 ml tubes, and vigorously shaken to remove intestinal epithelial cells. The tissues were then washed with 10 ml of 10% FCS RPMI medium. Tissues were cut into tiny pieces and incubated with 2.4 mg/ml Collagenase D and 0.2 mg/ml DNase for 30 min at 37° C. Then cells were washed, resuspended in 44% Percoll solution, and slowly loaded on the top of 67% Percoll solution. The cells were centrifuged (1800 rpm, 20 min) and lymphocyte fractions were collected and used for detection of MMC9s (Lin^−c-Kit^+ST2^+IL-17RB^−Integrin β7^lo).
The cells were first incubated with 2.4G2 for 15 min at 4° C. and further incubated with Abs (PE-anti-07 integrin mAb (clone FIB504), PerCP/Cy5.5-anti-CD4 mAb (clone RM4-5), PerCP/Cy5.5-anti-CD8 mAb (clone 53-6.7), PerCP/Cy5.5-anti-CD11b mAb (clone M1/70), PerCP/Cy5.5-anti-CD11c mAb (clone N418), PerCP/Cy5.5-anti-B220 mAb (RA3-6B2), PerCP/Cy5.5-anti-Ly-6G/Ly-6C mAb (clone RB6-8C5), PerCP/Cy5.5-anti-CD335 mAb (clone 29A1.4), AlexaFluor647-anti-IL-17RB (clone 9B10), APC/Cy7-anti-CD117 (clone 2B8), Biotin-anti-ST2 (clone DIH9)) (Biolegend) for 30 min at 4° C. After washed, the cells were incubated with SA-BV421 (Biolegend) for 30 min at 4° C. MMC9 population was identified using FACS Canto. Data were analyzed using FlowJo software.

B1: HRF-2CA-His6, a monomeric mutant of mouse HRF (protein)
chain: MIIYRDLISHDELFSDIYKIREIADGLALEVEGKMVSRTEGAIDDSLIGGNASAEGPEGEGTESTVVTGVDIVMNHHLQETSFTKEAYKKYIKDYMKSLKGKLEEQKPERVKPFMTGAAEQIKHILANFNNYQFFIGENMNPDGMVALLDYREDGVTPFMIFFKDGLEMEKAHHHHHH
[1]
  percent of IgE+ mMCP-1+ mast cells targeted: 64%
[2]; OVA-sensitized mice after OVA challenges, i.g. pretreatment
  HRF-reactive IgE levels: did not affect
[2]; after eleven OVA challenges
  reduction of HRF-reactive IgG levels: not affected
[2]; i.g. pretreatment before each OVA challenge, chloroacetate esterase staining
  number of mucosal mast cells in jejunum (intestinal mastocytosis): inhibits
[2]; i.g. pretreatment, serum ELISA
  levels of total IgE, IgG1, IgG2a or HRF-reactive IgE and IgG: failed to affect
[2]; sensitized mice pretreated i.g. with 100 μg before each OVA challenge
  diarrhea occurrence / incidence: inhibits
